Numbering of substitutions follows the chain as printed. Names and notes keep the numbering of the source. Read-outs that look alike come from different tables or passages of the source. Blank lines part the entries; values can stand above or below the binder they belong to. [ ]: non-standard residue; d: D form. Tyr(SO2F) = N[C@@H](Cc1ccc(OS(=O)(=O)F)cc1)C(=O)O
Key:
[1] = biological target: T1, PSMA (commercial, Sino Bio cat #15877-H07H) (UniProt Q04609 44-750); assay: SDS-PAGE time course, 37C
T1 construct: also called receptor

PSMA on LNCaP cells [2] = biological target: T2, PSMA on LNCaP cells (human, UniProt Q04609 1-750); assay: flow cytometry on LNCaP cells
T2 construct: whole, on cells; also called LNCaP (PSMA+)

PSMA on LNCaP cells [3] = biological target: T2, PSMA on LNCaP cells; assay: western blot, LNCaP cells, 0.1 nM, 1 h
PSMA on LNCaP cells [4] = biological target: T2, PSMA on LNCaP cells; assay: western blot, LNCaP cells, 0.1 nM, 6 h
PSMA on LNCaP cells [5] = biological target: T2, PSMA on LNCaP cells; assay: western blot, LNCaP cells, 1.0 nM, 1 h
PSMA on LNCaP cells [6] = biological target: T2, PSMA on LNCaP cells; assay: western blot, LNCaP cells, 1.0 nM, 6 h
PSMA on LNCaP cells [7] = biological target: T2, PSMA on LNCaP cells; assay: western blot, LNCaP cells, 10.0 nM, 1 h
PSMA on LNCaP cells [8] = biological target: T2, PSMA on LNCaP cells; assay: western blot, LNCaP cells, 10.0 nM, 6 h
PSMA on LNCaP cells [9] = biological target: T2, PSMA on LNCaP cells; assay: western blot, LNCaP cells, 100.0 nM, 1 h
PSMA on LNCaP cells [10] = biological target: T2, PSMA on LNCaP cells; assay: western blot, LNCaP cells, 100.0 nM, 6 h
PSMA on LNCaP cells [11] = biological target: T2, PSMA on LNCaP cells; assay: western blot, LNCaP cells, 1000.0 nM, 1 h
PSMA on LNCaP cells [12] = biological target: T2, PSMA on LNCaP cells; assay: western blot, LNCaP cells, 1000.0 nM, 6 h
[13] = biological target: T3, Fc-tagged Her2 (Acrobiosystem #HER2-H5253) (UniProt P04626 23-652); assay: SDS-PAGE time course
T3 construct: also called Her2-Fc; FcHer2

PSMA on PC3pip cells [14] = biological target: T4, PSMA on PC3pip cells (UniProt Q04609 1-750, limits assumed); assay: cell-based or functional assay
PSMA on PC3pip cells [15] = biological target: T4, PSMA on PC3pip cells; assay: cell-based or functional assay; remark: listed apart in the source
PSMA on LNCaP cells [16] = biological target: T2, PSMA on LNCaP cells; assay: flow cytometry on LNCaP cells; remark: listed apart in the source
[17] = biological target: T5, PSMA with a Fc tag (Acrobiosystem PSA-H5264) (UniProt Q04609 44-750); assay: biolayer interferometry, PSMA-Fc on AHC sensor
T5 construct: Printed 'Fe tag'; captured on AHC sensors; also called PSMA with a Fe tag

HER2 on BT-474 cells [18] = biological target: T6, HER2 on BT-474 cells (human, UniProt P04626 23-1255); assay: cell-based or functional assay
HER2 on BT-474 cells [19] = biological target: T6, HER2 on BT-474 cells; assay: flow cytometry on BT-474 cells, pH 6.0

T1 sequence (Q04609 44-750 limits assumed): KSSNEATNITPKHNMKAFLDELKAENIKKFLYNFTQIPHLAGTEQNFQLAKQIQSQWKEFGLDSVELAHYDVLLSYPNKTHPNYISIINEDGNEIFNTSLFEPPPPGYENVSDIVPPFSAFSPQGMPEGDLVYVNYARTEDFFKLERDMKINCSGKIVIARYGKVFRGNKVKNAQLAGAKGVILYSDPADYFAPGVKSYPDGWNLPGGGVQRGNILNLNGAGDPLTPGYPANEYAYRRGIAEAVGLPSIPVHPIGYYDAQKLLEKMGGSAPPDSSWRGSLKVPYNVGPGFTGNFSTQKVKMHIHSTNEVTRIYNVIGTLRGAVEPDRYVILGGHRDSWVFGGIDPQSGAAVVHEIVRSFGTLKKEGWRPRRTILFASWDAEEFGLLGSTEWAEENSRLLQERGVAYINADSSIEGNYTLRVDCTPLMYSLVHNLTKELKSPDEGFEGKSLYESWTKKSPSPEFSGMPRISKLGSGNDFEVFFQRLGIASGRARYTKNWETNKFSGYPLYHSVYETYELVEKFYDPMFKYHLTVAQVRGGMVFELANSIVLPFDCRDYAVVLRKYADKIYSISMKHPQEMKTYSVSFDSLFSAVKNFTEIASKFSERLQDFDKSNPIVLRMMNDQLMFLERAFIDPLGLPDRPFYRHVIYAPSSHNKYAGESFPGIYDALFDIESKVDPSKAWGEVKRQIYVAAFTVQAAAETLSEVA
T4 sequence (Q04609 whole entry): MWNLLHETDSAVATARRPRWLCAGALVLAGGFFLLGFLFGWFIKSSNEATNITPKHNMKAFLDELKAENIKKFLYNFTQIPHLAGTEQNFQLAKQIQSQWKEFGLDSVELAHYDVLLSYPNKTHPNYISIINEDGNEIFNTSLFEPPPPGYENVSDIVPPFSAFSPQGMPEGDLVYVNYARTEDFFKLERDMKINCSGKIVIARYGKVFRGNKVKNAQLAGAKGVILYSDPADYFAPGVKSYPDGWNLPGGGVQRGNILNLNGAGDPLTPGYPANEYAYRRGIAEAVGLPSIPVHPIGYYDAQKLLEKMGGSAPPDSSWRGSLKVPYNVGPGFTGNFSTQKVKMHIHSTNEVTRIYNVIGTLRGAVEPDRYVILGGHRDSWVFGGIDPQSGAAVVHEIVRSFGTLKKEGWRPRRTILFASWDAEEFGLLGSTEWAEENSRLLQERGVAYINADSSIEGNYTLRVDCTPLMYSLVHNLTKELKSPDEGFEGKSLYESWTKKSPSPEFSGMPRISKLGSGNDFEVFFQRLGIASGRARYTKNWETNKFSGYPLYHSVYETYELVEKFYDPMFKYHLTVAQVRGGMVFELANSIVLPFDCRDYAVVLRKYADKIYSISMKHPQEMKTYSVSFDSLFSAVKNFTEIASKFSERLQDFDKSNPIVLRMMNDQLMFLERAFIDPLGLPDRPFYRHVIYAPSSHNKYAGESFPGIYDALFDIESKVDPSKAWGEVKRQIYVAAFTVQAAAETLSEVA
T2 sequence (Q04609 whole entry): as above
T5 sequence (Q04609 44-750 limits assumed): as the sequence (Q04609 44-750 limits assumed) above

B5: C28-101TYR (VHH)
VHH: QVQLQESGGGSVEAGGSLRLSCARSGWPYSTYSMNWFRQAPGKEREAVAGISSTMSGIIFAESKAGQFTISQDNAKNTVYLQMNNLKPEDTAIYYCAARRYFSLSSSSDDFDYWGQGTQVTVSS
modifications: MC-PEG8-VC-PABC-MMAE on the C-terminal Cys
IC50 PC3pip (M), cell viability by CellTiter-Glo after 4 days (PSMA on PC3pip cells [14]): 8.47e-08 M

B6: C28-101FSY (VHH)
VHH: B5 VHH with Y101X
modifications: FSY at 101 (X of the entry); MC-PEG8-VC-PABC-MMAE on the C-terminal Cys
fold potency against C28-101TYR (PSMA on PC3pip cells [15]): > 400 fold
IC50 PC3pip (M), cell viability by CellTiter-Glo after 4 days (PSMA on PC3pip cells [14]): 1.8e-10 M

B7: C24-101TYR (VHH)
VHH: B5 VHH
EC50 (PSMA on LNCaP cells [2]): > 500 nM

B8: C24-101FSY (VHH)
VHH: B5 VHH with Y101X
modifications: FSY at 101 (X of the entry)
notes: also called C24-FSY
Crosslinked PSMA (Total PSMA %) (PSMA on LNCaP cells [3]): 0%
Crosslinked PSMA (Total PSMA %) (PSMA on LNCaP cells [4]): 0%
Crosslinked PSMA (Total PSMA %) (PSMA on LNCaP cells [5]): 0%
Crosslinked PSMA (Total PSMA %) (PSMA on LNCaP cells [6]): 2.4%
Crosslinked PSMA (Total PSMA %) (PSMA on LNCaP cells [7]): 4.6%
Crosslinked PSMA (Total PSMA %) (PSMA on LNCaP cells [8]): 28.4%
Crosslinked PSMA (Total PSMA %) (PSMA on LNCaP cells [9]): 28.5%
Crosslinked PSMA (Total PSMA %) (PSMA on LNCaP cells [10]): 71%
Crosslinked PSMA (Total PSMA %) (PSMA on LNCaP cells [11]): 41.4%
Crosslinked PSMA (Total PSMA %) (PSMA on LNCaP cells [12]): 75.8%

B9: C26-54TYR (VHH)
VHH: EVQLVESGGGLVQPGGSLTLSCAASRFMISEYSMHWVRQAPGKGLEWVSTINPYGTTDYAESVKGRFTISRDNAKNTLYLQMNSLKPEDTAVYYCDGYGYRGQGTQVTVSS
modifications: MC-PEG8-VC-PABC-MMAE on the C-terminal Cys (DAR 1)
IC50 PC3pip (M), cell viability by CellTiter-Glo after 4 days (PSMA on PC3pip cells [14]): 3.36e-09 M

B10: C26-54FSY (VHH)
VHH: B9 VHH with Y54X
modifications: FSY at 54 (X of the entry); MC-PEG8-VC-PABC-MMAE on the C-terminal Cys
fold potency against C26-54TYR (PSMA on PC3pip cells [15]): 3.57 fold
IC50 PC3pip (M), cell viability by CellTiter-Glo after 4 days (PSMA on PC3pip cells [14]): 9.39e-10 M

B11: C2-54FSY (VHH)
VHH: B9 VHH with Y54X
modifications: FSY at 54
notes: also called C2-A54(FSY); C2-FSY
EC50 (PSMA on LNCaP cells [16]): 12.2 nM
Kd [17]: 10.9 nM

B12: C2-54TYR (VHH)
VHH: B9 VHH
notes: C2 sdAb with tyrosine at position 54; also called C2-TYR
EC50 (PSMA on LNCaP cells [2]): 6.75 nM
Kd [17]: 9.1 nM

B16: C33-54TYR (VHH)
VHH: QVQLQESGGGSVQAGGSLKLTCAASGYIFNSCGMGWYRQSPGRERELVSRISGYGDTWHKESVKGRFTISQDNVKKTLYLQMNSLKPEDTAVYFCAVCYNLETYWGQGTQVTVSS
modifications: PEG8-vc-PABC-MMAE on the C-terminal GGG
IC50 (nM) - 5 h, BT474 viability after 5 h washout (HER2 on BT-474 cells [18]): 21.6 nM
IC50 (nM) - 6 days, BT474 viability, continuous exposure (HER2 on BT-474 cells [18]): 0.328 nM
EC50 (HER2 on BT-474 cells [19]): 2.5 nM

More lines, main results first:

t1/2 maximum crosslinking [1]: ~60 min
B1: C39-102FSY (VHH)
VHH: QVQLQESGGGSVQAGGSLRLSCTAPGYTDSNYYMSWFRQAPGKEREWVAGVNTGRGSTSYADSVKGRFTISQDNAKNTMFLQMNSLKPEDTAIYYCAVAAAXFADSLPKTQDEYILWGQGTQVTVSS
modifications: FSY at 102 (X of the entry)
notes: pelB leader cleaved off; also called C1-C101A/C104A/H102(FSY); C39-FSY C1

EC50 (PSMA on LNCaP cells [2]): 2.3 nM
B2: C34-TYR (bispecific antibody)
chain: EVQLVESGGGLVQPGGSLTLSCAASRFMISEYSMHWVRQAPGKGLEWVSTINPYGTTDYAESVKGRFTISRDNAKNTLYLQMNSLKPEDTAVYYCDGYGYRGQGTQVTVSSGGGGSGGGGSGGGGSQVQLQESGGGSVEAGGSLRLSCARSGWPYSTYSMNWFRQAPGKEREAVAGISSTMSGIIFAESKAGQFTISQDNAKNTVYLQMNNLKPEDTAIYYCAARRYFSLSSSSDDFDYWGQGTQVTVSSAAAYPYDVPDYGSLPETGGSPSTPPTPSPSTPP
notes: Biparatopic tandem of two anti-PSMA VHH

Crosslinked PSMA (Total PSMA %) (PSMA on LNCaP cells [3]): 0%
Crosslinked PSMA (Total PSMA %) (PSMA on LNCaP cells [4]): 3.2%
Crosslinked PSMA (Total PSMA %) (PSMA on LNCaP cells [5]): 14.8%
Crosslinked PSMA (Total PSMA %) (PSMA on LNCaP cells [6]): 21.5%
Crosslinked PSMA (Total PSMA %) (PSMA on LNCaP cells [7]): 56.9%
Crosslinked PSMA (Total PSMA %) (PSMA on LNCaP cells [8]): 78.7%
Crosslinked PSMA (Total PSMA %) (PSMA on LNCaP cells [9]): 63.3%
Crosslinked PSMA (Total PSMA %) (PSMA on LNCaP cells [10]): 87.1%
Crosslinked PSMA (Total PSMA %) (PSMA on LNCaP cells [11]): 70.4%
Crosslinked PSMA (Total PSMA %) (PSMA on LNCaP cells [12]): 89.9%
B3: C34-FSY (bispecific antibody)
chain: B2 chain with Y227X
modifications: FSY at the X of the entry (101 of the C24 part)
notes: as for B2

crosslinking [13]: 50%
B4: C38-FSY (designed binder)
chain: MDLGKKLLEAARAGQDDEVRILMANGADVNAHDFYGITPLHLAANFGHLEIVEVLLKHGADVNAF[Tyr(SO2F)]YDNTPLHLAADAGHLEIVEVLLKYGADVNASDRDGHTPLHLAAREGHLEIVEVLLKNGADVNAQDKFGKTAFDISIDNGNEDLAEILQKLGGGGSRSDLGKKLLEAARAGQDDEVRILMANGADVNAKDEYGLTPLYLATAHGHLEIVEVLLKNGADVNAVDAIGFTPLHLAAFIGHLEIAEVLLKHGADVNAQDKFGKTAFDISIGNGNEDLAEILQKLNGS
notes: also called C15-66FSY-C16; biparatopic DARPin

EC50 (PSMA on LNCaP cells [2]): 12.3 nM
B13: C35-TYR (bispecific antibody)
chain: QVQLQESGGGSVEAGGSLRLSCARSGWPYSTYSMNWFRQAPGKEREAVAGISSTMSGIIFAESKAGQFTISQDNAKNTVYLQMNNLKPEDTAIYYCAARRYFSLSSSSDDFDYWGQGTQVTVSSGGGGSGGGGSGGGGSQVQLQESGGGSVEAGGSLRLSCARSGWPYSTYSMNWFRQAPGKEREAVAGISSTMSGIIFAESKAGQFTISQDNAKNTVYLQMNNLKPEDTAIYYCAARRYFSLSSSSDDFDYWGQGTQVTVSSAAAYPYDVPDYGSLPETGGSPSTPPTPSPSTPP
notes: Tandem of two copies of the same VHH

Crosslinked PSMA (Total PSMA %) (PSMA on LNCaP cells [3]): 3.8%
Crosslinked PSMA (Total PSMA %) (PSMA on LNCaP cells [4]): 2.8%
Crosslinked PSMA (Total PSMA %) (PSMA on LNCaP cells [5]): 13.8%
Crosslinked PSMA (Total PSMA %) (PSMA on LNCaP cells [6]): 23.7%
Crosslinked PSMA (Total PSMA %) (PSMA on LNCaP cells [7]): 58.7%
Crosslinked PSMA (Total PSMA %) (PSMA on LNCaP cells [8]): 74.2%
Crosslinked PSMA (Total PSMA %) (PSMA on LNCaP cells [9]): 82.7%
Crosslinked PSMA (Total PSMA %) (PSMA on LNCaP cells [10]): 87.9%
Crosslinked PSMA (Total PSMA %) (PSMA on LNCaP cells [11]): 90.3%
Crosslinked PSMA (Total PSMA %) (PSMA on LNCaP cells [12]): 92%
B14: C36-FSY (bispecific antibody)
chain: B13 chain with Y101X, Y240X
modifications: FSY at both X of the entry (101 of each C24 part)
notes: as for B13

fold crosslinking rate against C39-102FSY [1]: 2 fold
t1/2 maximum crosslinking [1]: ~30 min
B15: C40-102FSY (bispecific antibody)
chain: QVQLQESGGGSVQAGGSLRLSCTAPGYTDSNYYMSWFRQAPGKEREWVAGVNTGRGSTSYADSVKGRFTISQDNAKNTMFLQMNSLKPEDTAIYYCAVAAAXFADSLPKTQDEYILWGQGTQVTVSSAAAYPYDVPDYGSGGGGSGGGGSQVQLQESGGGSVQAGGSLRLSCTAPGYTDSNYYMSWFRQAPGKEREWVAGVNTGRGSTSYADSVKGRFTISQDNAKNTMFLQMNSLKPEDTAIYYCAVAAAHFADSLPKTQDEYILWGQGTQVTVSSAAAYPYDVPDYGSHHHHHH
modifications: FSY at 102 of the first sdAb
notes: also called C40-FSY; C1-C101A/C104A/H102(FSY)-L1-C1-C39

EC50 (HER2 on BT-474 cells [19]): 160 nM
B17: C33-52TYR (VHH)
VHH: B16 VHH with S52Y, Y54D
modifications: PEG8-vc-PABC-MMAE on the C-terminal GGG, by sortase ligation
IC50 (nM) - 5 h, BT474 viability after 5 h washout (HER2 on BT-474 cells [18]): > 100 nM
IC50 (nM) - 6 days, BT474 viability, continuous exposure (HER2 on BT-474 cells [18]): 8.42 nM
